Data taken from US8008456B2, “Compositions containing, methods involving, and uses of non-natural amino acids and polypeptides” (Ambrx, Inc., priority 2004, dated 2011).

Experiments:
[1] = Oxime stability pH 4-8; format: physicochemical
Description: This example provides results of four tests that were conducted on certain illustrative non-natural amino acids as an aid for predicting their properties for incorporation into non-natural amino acid polypeptides.

[2] = Pharmacokinetic studies, single s.c. dose in rats, plasma growth hormone ELISA; format: in vivo; details: single-dose 1 mg/kg bolus s.c., normal male Sprague-Dawley rats; average (+/- standard deviation)
Description: Pharmacokinetic properties of PEG-modified growth hormone compounds were compared to each other and to nonPEGylated growth hormone in male Sprague-Dawley rats (261-425 g) obtained from Charles River Laboratories. Catheters were surgically installed into the carotid artery for blood collection. Following successful catheter installation, animals were assigned to treatment groups (three to six per group) prior to dosing. Animals were dosed subcutaneously with 1 mg/kg of compound in a dose volume of 0.41-0.55 ml/kg. Blood samples were collected at various time points via the indwelling catheter and into EDTA-coated microfuge tubes. Plasma was collected after centrifugation, and stored at −80° C. until analysis. Compound concentrations were measured using antibody sandwich growth hormone ELISA kits from either BioSource International (Camarillo, Calif.) or Diagnostic Systems Laboratories (Webster, Tex.). Concentrations were calculated using standards corresponding to the analog that was dosed. Pharmacokinetic parameters were estimated using the modeling program WinNonlin (Pharsight, version 4.1). Noncompartmental analysis with linear-up/log-down trapezoidal integration was used, and concentration data was uniformly weighted.
Plasma concentrations were obtained at regular intervals following a single subcutaneous dose in rats. […] Plasma samples were taken over the regular time intervals and assayed for injected compound as described. […] Concentration vs time curves were evaluated by noncompartmental analysis (Pharsight, version 4.1). Values shown are averages (+/−standard deviation). Cmax: maximum concentration; terminal t1/2: terminal half-life; AUC0->inf: area under the concentration-time curve extrapolated to infinity; MRT: mean residence time; Cl/f: apparent total, plasma clearance; Vz/f: apparent volume of distribution during terminal phase.

[3] = Pharmacodynamic studies, bodyweight gain in hypophysectomized rats; format: in vivo, Hypophysectomized male Sprague-Dawley rats; details: s.c., compared with 30 KPEG-pAF92(his)hGH, p<0.0005
Description: Hypophysectomized male Sprague-Dawley rats were obtained from Charles River Laboratories. Pituitaries were surgically removed at 3-4 weeks of age. Animals were allowed to acclimate for a period of three weeks, during which time bodyweight was monitored. Animals with a bodyweight gain of 0-8 g over a period of seven days before the start of the study were included and randomized to treatment groups. Rats were administered either a bolus dose or daily dose subcutaneously. Throughout the study rats were daily and sequentially weighed, anesthetized, bled, and dosed (when applicable). Blood was collected from the orbital sinus using a heparinized capillary tube and placed into an EDTA coated microfuge tube. Plasma was isolated by centrifugation and stored at −80° C. until analysis. The mean (+/−S.D.) plasma concentrations were plotted versus time intervals.
The peptide IGF-1 is a member of the family of somatomedins or insulin-like growth factors. IGF-1 mediates many of the growth-promoting effects of growth hormone. IGF-1 concentrations were measured using a competitive binding enzyme immunoassay kit against the provided rat/mouse IGF-1 standards (Diagnostic Systems Laboratories). Hypophysectomized rats. Rats (n=5-7 per group) were given either a single dose or daily dose subcutaneously. Animals were sequentially weighed, anesthetized, bled, and dosed (when applicable) daily.

Oxime Stability pH 4-8 [1]	Compound	AUC0->inf [2]	Cl/f [2]	Cmax [2]	MRT [2]	Terminal t1/2 [2]	bodyweight gain at day 9 [3]
− −	N[C@@H](Cc1ccc2c(c1)NC(=O)C2=O)C(=O)O						
	30KPEG-pAF35(his)hGH: "hGH polypeptides comprising p-acetyl-phenylalanine covalently-linked to 30 kDa PEG at positions 35 and 92"	39,918 (±22,683) ng × hr/ml	35 (±27) ml/hr/kg	1,885 (±1,011) ng/ml	19.16 (±4.00) h	4.85 (±0.80) h	greater weight gain
